According to article PMC6030200 (Scientific Reports, 2018):

Biological target: the molecule itself
Test: negative-stain electron microscopy

B1: HAdV-5 penton base protein, recombinant, soluble (natural protein)
chain: MRRAAMYEEGPPPSYESVVSAAPVAAALGSPFDAPLDPPFVPPRYLRPTGGRNSIRYSELAPLFDTTRVYLVDNKSTDVASLNYQNDHSNFLTTVIQNNDYSPGEASTQTINLDDRSHWGGDLKTILHTNMPNVNEFMFTNKFKARVMVSRLPTKDNQVELKYEWVEFTLPEGNYSETMTIDLMNNAIVEHYLKVGRQNGVLESDIGVKFDTRNFRLGFDPVTGLVMPGVYTNEAFHPDIILLPGCGVDFTHSRLSNLLGIRKRQPFQEGFRITYDDLEGGNIPALLDVDAYQASLKDDTEQGGGGAGGSNSSGSGAEENSNAAAAAMQPVEDMNDHAIRGDTFATRAEEKRAEAEAAAEAAAPAAQPEVEKPQKKPVIKPLTEDSKKRSYNLISNDSTFTQYRSWYLAYNYGDPQTGIRSWTLLCTPDVTCGSEQVYWSLPDMMQDPVTFRSTRQISNFPVVGAELLPVHSKSFYNDQAVYSQLIRQFTSLTHVFNRFPENQILARPPAPTITTVSENVPALTDHGTLPLRNSIGGVQRVTITDARRRTCPYVYKALGIVSPRVLSSRTF
notes: also called 5PB; source: Sf9 (baculovirus, pFastBac HT A), purified (Ni-NTA agarose, HiTrap Q-sepharose)
- stoichiometry N: 5
